Source: article PMC2749708

Tests used:
[1] = target: EspFU three-repeat fragment; assay: AUC + other: binding assays
[2] = target: N-WASP GBD (amino acids 214-274) (UniProt O08816)
Sequence of UniProt O08816 (O08816 214-274): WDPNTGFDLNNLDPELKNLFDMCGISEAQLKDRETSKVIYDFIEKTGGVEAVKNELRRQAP

Sequence of EspFU three-repeat fragment (C6UYI3 whole entry, the tested form may be a part): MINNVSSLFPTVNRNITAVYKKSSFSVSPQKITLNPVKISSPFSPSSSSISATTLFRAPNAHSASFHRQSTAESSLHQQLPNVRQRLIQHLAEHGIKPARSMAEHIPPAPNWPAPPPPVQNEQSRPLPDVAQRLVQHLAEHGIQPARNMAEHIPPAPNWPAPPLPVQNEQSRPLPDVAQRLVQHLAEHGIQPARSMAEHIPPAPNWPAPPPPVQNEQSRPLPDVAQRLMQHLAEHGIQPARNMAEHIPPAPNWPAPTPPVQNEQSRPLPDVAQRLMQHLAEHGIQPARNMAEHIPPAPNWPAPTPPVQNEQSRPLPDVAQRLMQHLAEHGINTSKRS

Substance	stoichiometry N [1]	Kd [2]
N-WASP GBD (domain or fragment)	3	
one EspFU repeat (domain or fragment)		18 nM
